Molecular target: ETV6 full-length (UniProt P41212 1-452)
Assay: pull-down; fragment Fr18 (enhanced binding); Pull-down: 4 C, 30 min, 1 ug poly(dI/dC), 4 mM spermidine; wash in binding buffer 50 mM KCl, 10 mM HEPES pH 7.6, 5 mM MgCl2, 10 mM Tris pH 8, 0.05 mM EDTA, 0.1% Triton X-100, 20% glycerol. SPR: 25 mM HEPES pH 7.5, 100 mM NaCl, 1 mM EDTA, 1 mM beta-mercaptoethanol; NMR same buffer (296 K)
Conditions: protein: ivt; tags: FLAG; only one strand given

Chain of ETV6 full-length (P41212 whole entry, the tested form may be a part): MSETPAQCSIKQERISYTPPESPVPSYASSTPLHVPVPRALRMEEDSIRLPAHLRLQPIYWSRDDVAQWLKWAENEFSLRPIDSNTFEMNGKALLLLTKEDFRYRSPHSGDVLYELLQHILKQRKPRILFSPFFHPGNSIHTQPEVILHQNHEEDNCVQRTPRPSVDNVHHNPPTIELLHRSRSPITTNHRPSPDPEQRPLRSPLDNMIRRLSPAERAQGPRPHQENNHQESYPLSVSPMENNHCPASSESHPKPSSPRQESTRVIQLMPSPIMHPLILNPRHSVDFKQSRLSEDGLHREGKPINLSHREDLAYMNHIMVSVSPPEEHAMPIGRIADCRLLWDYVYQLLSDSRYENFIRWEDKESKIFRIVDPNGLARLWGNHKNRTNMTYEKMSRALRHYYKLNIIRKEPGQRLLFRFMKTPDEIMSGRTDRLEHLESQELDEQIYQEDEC

B1: 3x consensus ETS oligonucleotide (biotinylated) (dsDNA)
DNA 1: ACCGGAAGTACCGGAAGTACCGGAAGT
DNA 2: ACTTCCGGTACTTCCGGTACTTCCGGT
- binding result: binds

Source: paper PMC12183613, “Identification of novel small molecule inhibitors of ETS transcription factors”
